{
  "source": "patent US20170304437A1",
  "about": "(ALLIGATOR BIOSCIENCE, published 2017)",
  "binders": {"B1": {"name": "CD86 mutant clone 1040, gamma2/gamma4 fusion (Fc fusion)", "chain": "APLKIQAYFNETADLPCQFANSQNLSLSELVVFWQDQENLVLNEVYLGKERFDSVDSKYMGRTSFDSDSWTLRLHNLQIKDKGRYQCIIHHKKPTGMINIHQMNSELSVLA", "notes": "Expressed as gamma2/gamma4 fusion, protein A purified; not shown: gamma2/gamma4 Fc"}, "B2": {"name": "CD86 mutant clone 1042, gamma2/gamma4 fusion (Fc fusion)", "chain": "B1 chain with R51I, D56S, R84I, T95S, I98V, N99K, N104D", "notes": "as for B1"}, "B3": {"name": "Antibody A2-54 (monospecific anti-CD40) (antibody, human IgG1, kappa, V domains shown)", "VH": "EVQLLESGGGLVQPGGSLRLSCAASGFTFSDYYMSWVRQAPGKGLEWISSISSNGIYIYYADSLKGRFTISRDNSKNTLYLQMNSLRAEDTAVYYCARAPVDYSNPSGMDVWGQGTLVTVSS", "VL": "not shown", "notes": "VH-gamma1 / VL-kappa; also called control Ab"}, "B4": {"name": "CD86 mutant clone 904, gamma2/gamma4 Fc fusion (Fc fusion)", "chain": "LKIQAYFNETADLPCQFANSQNQSLSELIVFWQDQENLVLNEVYLGKERFDAVDSKYMGRTSFDSDSWTLRLHNLQIKDKGIYQCIIHHKKPSGMVKIHQMDSELSVLA", "notes": "Fusion to gamma2/gamma4 Fc, HEK293; not shown: gamma2/gamma4 Fc"}, "B5": {"name": "CD86 mutant clone 907, gamma2/gamma4 Fc fusion (Fc fusion)", "chain": "B4 chain with I29V, R49K, A52S, D54H, I82L, S93T, V96I, Q100E, D102N", "notes": "as for B4"}},
  "key": {"[1]": {"biological_target": "T1, human CTLA4-Fc (Fitzgerald #30R-CD152) (human, UniProt P16410 38-152)", "T1 construct": "Bought reagent; also called biotinylated-CTLA4; human CTLA-4 (Fitzgerald); not shown: Fc part of the bought fusion", "T1 sequence (P16410 38-152 limits assumed)": "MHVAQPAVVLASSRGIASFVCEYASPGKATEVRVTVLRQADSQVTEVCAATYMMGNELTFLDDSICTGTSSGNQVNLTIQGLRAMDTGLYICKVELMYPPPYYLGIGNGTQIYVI", "assay": "binding ELISA, coated CTLA4-Fc; high end tied to 1040 by Table 7", "method": "(§1) The plates were washed (Wash buffer: PBS+0.05% Tween 20 (PBST) Medicago #09-9410-100) and then blocked in PBST+3% BSA (Merck, #1.12018.0100). The plates were washed again and sample or controls (serially diluted 1/3 from 50 000-0001 nM) were added to the wells. The samples were incubated for 1 h at room temperature and then washed. Detection antibody, goat-anti-human IgG Fγy-HRP (Jackson, #109-035-098) was added and the plates were subsequently developed using SuperSignal Pico Chemiluminescent substrate (Thermo #37069) and detected with an Envision reader (Perkin Elmer)."}, "[2]": {"biological_target": "T1, human CTLA4-Fc (Fitzgerald #30R-CD152)", "assay": "inhibition ELISA: sample titrated, pre-incubated with biotinylated CTLA4-Fc, mixture added to coated wildtype CD86-Fc (competitor), streptavidin-HRP [lower panel]", "method": "(§2) The plates were washed (Wash buffer: PBS+0.05% Tween 20 (PBST) Medicago #09-9410-100) and then blocked in PBST+3% BSA (Merck, #1.12018.0100). The sample (CD86 mutant or wild type protein; serially diluted 1/4 from 30000 to 0.3 ng/ml) was incubated with biotinylated-CTLA4 (Fitzgerald #30R-CD152) in room temperature 1 h, the mixture was then added to the blocked wells in the ELISA plate. Detection was performed with Streptavidin-HRP (Pierce #21126) and the plates were subsequently developed using SuperSignal Pico Chemiluminescent substrate (Thermo #37069) and detected with Envision reader (Perkin Elmer)."}, "[3]": {"biological_target": "T2, CD28-Fc (provided by Simon Davis, Oxford University) (human, UniProt P10747 19-152, limits assumed)", "T2 construct": "Gift reagent; not shown: Fc part", "assay": "binding ELISA, coated CD28-Fc", "method": "as §1"}, "[4]": {"biological_target": "T1, human CTLA4-Fc (Fitzgerald #30R-CD152)", "assay": "binding ELISA, CTLA4-Fc coated, sample titrated, anti-human IgG Fc-HRP, chemiluminescence, data normalised to % [upper panel]", "method": "as §1"}, "[5]": {"biological_target": "T1, human CTLA4-Fc (Fitzgerald #30R-CD152)", "assay": "inhibition ELISA; best molecule is 1040 by Table 8", "method": "as §2"}, "[6]": {"biological_target": "T1, human CTLA4-Fc (Fitzgerald #30R-CD152)", "assay": "binding ELISA, coated CTLA4-Fc; low end tied to 1042 by Table 7", "method": "as §1"}, "[7]": {"biological_target": "T3, CD40-Fc (R&D #1493-CD) (human, UniProt P25942 21-193)", "T3 construct": "Bought reagent immobilised on the Biacore chip; also called human CD40; not shown: Fc part of the bought fusion", "T3 sequence (P25942 21-193 limits assumed)": "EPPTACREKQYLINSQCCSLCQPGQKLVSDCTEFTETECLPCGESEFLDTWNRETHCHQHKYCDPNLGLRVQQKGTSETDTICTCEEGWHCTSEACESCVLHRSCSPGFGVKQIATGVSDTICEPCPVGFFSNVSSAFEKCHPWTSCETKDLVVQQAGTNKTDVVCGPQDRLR", "assay": "SPR (Biacore 3000), CD40-Fc immobilised, control antibody injected", "method": "CD40-Fc (R&D #1493-CD) was immobilized to the BIAcore sensorship, CMS, using conventional amine coupling. 0.5 uM Bispecific construct (957/530) was injected over immobilized CD40 for 3 minutes and the dissociation was followed for 3 minutes. 2.17 uM CTLA4-Fc (Orencia, Bristol-Mayers Squibb) was injected over the CD40-Bispecific complex for 3 minutes and the dissociation phase was followed for 3 minutes. The chip was finally regenerated using 10 mM Glycine, pH 1.7. A Biacore 3000 instrument was used according to the manufacturer's protocols."}, "[8]": {"biological_target": "T1, human CTLA4-Fc (Fitzgerald #30R-CD152)", "assay": "binding ELISA, CTLA4-Fc coated, sample titrated, anti-human IgG Fc-HRP, chemiluminescence", "method": "as §1, with “The plates were washed again and sample or controls (serially diluted 1/3 from 50 000-0001 nM) were added to the wells.” left out, “Fcγ-HRP” for “Fγy-HRP”, “with” for “with an”"}, "[9]": {"biological_target": "T4, CTLA4-Fc (Orencia, Bristol-Mayers Squibb) (human, UniProt P16410 38-152)", "T4 construct": "Commercial drug Orencia; Biotinylated in the dual ELISA; also called soluble CTLA-4; human CTLA-4; not shown: Fc part of Orencia", "T4 sequence (P16410 38-152 limits assumed)": "as the sequence (P16410 38-152 limits assumed) above", "assay": "dual ELISA: CD40-Fc coated, antibody at 0.2 ug/ml captured, biotinylated CTLA4-Fc titrated, streptavidin-HRP", "method": "In short, 96-well flat bottom plate high binding plates (Greiner #655074) were coated with CD40-Fc (Ancell # 504-820) by incubating overnight at 4° C. The plates were washed (Wash buffer: PBS+0.05% Tween 20 (PBST) Medicago #09-9410-100) and then blocked in PBST+3% BSA (Merck, #1.12018.0100). […] The samples were incubated for 1 h at room temperature and then washed."}, "[10]": {"biological_target": "T1, human CTLA4-Fc (Fitzgerald #30R-CD152)", "assay": "Biacore SPR, CD28/CTLA-4 Kd ratio against that of wild type", "method": "The CD86 mutant molecules and controls (serially diluted 1/2 100-1.5 nM) were analyzed for binding in HBs-P (GE, BR-1003-69) at a flow rate […]. The association was followed for 3 minutes and the dissociation for 10 minutes. Regeneration was performed twice using 5 mM NaOH for 30 seconds. The kinetic parameters and the affinity constants were calculated using BlAevaluation 4.1 software."}, "[11]": {"biological_target": "T1, human CTLA4-Fc (Fitzgerald #30R-CD152)", "assay": "binding ELISA, CD28/CTLA-4 EC50 ratio against that of wild type", "method": "The plates were washed (Wash buffer: PBS+0.05% Tween 20 (PBST) Medicago #09-9410-100) and then blocked in PBST+3% BSA (Merck, #1.12018.0100).\nThe plates were washed again and sample or controls (serially diluted 1/5 from 200-0.001 μg/ml) were added to the wells. The samples were incubated for 1 h at room temperature and then washed. Detection antibody, goat-anti-human IgG Fcγ-HRP (Jackson, #109-035-098) was added and the plates were subsequently developed using SuperSignal Pico Chemiluminescent substrate (Thermo #37069) and detected with an Envision reader"}},
  "note": "Positions count from the first letter of the chain named.",
  "data": [
    {"binder": "B1", "values": [
      {"measurement": "fold improvement of EC50 over wild type", "setting": "[1]", "value": "2 to 67", "unit": "fold"},
      {"measurement": "IC50 (read off the curve)", "setting": "[2]", "value": "~0.05", "unit": "µg/mL"},
      {"measurement": "binding result", "setting": "[3]", "value": "no binding"},
      {"measurement": "EC50 (read off the curve)", "setting": "[4]", "value": "~0.009", "unit": "µg/mL"},
      {"measurement": "fold improvement of IC50 over wild type", "setting": "[5]", "value": "> 100", "unit": "fold"}
    ]},
    {"binder": "B2", "values": [
      {"measurement": "binding result", "setting": "[3]", "value": "no binding"},
      {"measurement": "fold improvement of EC50 over wild type", "setting": "[6]", "value": "2 to 67", "unit": "fold"},
      {"measurement": "EC50 (read off the curve)", "setting": "[4]", "value": "~0.3", "unit": "µg/mL"}
    ]},
    {"binder": "B3", "values": [
      {"measurement": "binding result", "setting": "[7]", "value": "binds"},
      {"measurement": "binding result", "setting": "[8]", "value": "no binding (tested: log 1.2 µg/mL (about 16 µg/mL))"},
      {"measurement": "binding result", "setting": "[9]", "value": "no binding (tested: 20 µg/mL of hCTLA-4-bio)"}
    ]},
    {"binder": "B4", "values": [
      {"measurement": "fold of Kd binding ratio over wild type protein CD86", "setting": "[10]", "value": "> 4", "unit": "fold"}
    ]},
    {"binder": "B5", "values": [
      {"measurement": "fold of EC50 binding ratio over wild-type protein CD86", "setting": "[11]", "value": "~10", "unit": "fold"}
    ]}
  ]
}
